In patent US20150023943, “REF Nuclease for Site-Specific REF-Mediated DNA Cleavage” (Wisconsin Alumni Research Foundation, published 2015):

T1: φW39 ΔN74 Ref (Bacteriophage phi W39)
T1 chain: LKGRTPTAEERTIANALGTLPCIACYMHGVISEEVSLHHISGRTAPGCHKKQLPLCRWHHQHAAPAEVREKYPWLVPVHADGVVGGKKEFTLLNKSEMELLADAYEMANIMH

T2: φW39 ΔN21 Ref (Bacteriophage phi W39)
T2 chain: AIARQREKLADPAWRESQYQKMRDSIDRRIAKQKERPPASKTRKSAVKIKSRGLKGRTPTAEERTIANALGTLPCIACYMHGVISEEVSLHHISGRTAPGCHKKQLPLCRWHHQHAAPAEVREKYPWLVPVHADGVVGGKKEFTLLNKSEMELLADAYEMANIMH

T3: P1 ΔN76 Ref (Bacteriophage P1, UniProt P35926 SEQ:77-186)
T3 chain: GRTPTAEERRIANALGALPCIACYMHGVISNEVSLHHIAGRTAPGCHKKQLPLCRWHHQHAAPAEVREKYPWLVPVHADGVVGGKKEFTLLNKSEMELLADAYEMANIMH

T4: P1 Ref (wild type) (Bacteriophage P1, UniProt P35926 SEQ:1-186)
T4 sequence: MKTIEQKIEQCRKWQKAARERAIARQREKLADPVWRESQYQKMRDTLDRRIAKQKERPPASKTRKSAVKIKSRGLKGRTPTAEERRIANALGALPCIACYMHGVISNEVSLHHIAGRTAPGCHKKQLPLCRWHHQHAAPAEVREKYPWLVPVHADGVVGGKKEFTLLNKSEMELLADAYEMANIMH

T5: φW39 ΔN47 Ref (Bacteriophage phi W39)
T5 chain: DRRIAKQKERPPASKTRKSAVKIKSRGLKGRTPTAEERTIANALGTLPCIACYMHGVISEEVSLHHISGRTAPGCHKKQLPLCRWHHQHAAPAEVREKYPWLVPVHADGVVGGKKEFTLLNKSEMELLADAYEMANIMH

B1: AJM25 71mer ssDNA (ssDNA)
DNA: CAGAAGTAAGTTGGCCGCAGTGTTATCACTCATGGTTATGGCAGCACTGCATAATTCTCTTACTGTCATGC
B2: AJM25/AJG52 71 bp dsDNA (dsDNA)
DNA 1: B1 DNA
DNA 2: GCATGACAGTAAGAGAATTATGCAGTGCTGCCATAACCATGAGTGATAACACTGCGGCCAACTTACTTCTG

How the values were obtained:
φW39 ΔN74 Ref [1] = target: T1, φW39 ΔN74 Ref; assay: FP; no binding detected up to 10,000 nM; conditions: tags: expressed from pET21A with NdeI start Met; label: 5'-6FAM
Protocol: (§1) Fluorescence polarization DNA binding assay—Ref (or a variant) at 0.5-10,000 nM was incubated with 2 nM AJM25 71mer ssDNA or AJM25 annealed with AJG52 71mer to make dsDNA substrate in 25 mM Tris-acetate (pH 8.5), 3 mM potassium glutamate, 15 mM magnesium acetate, and 5% w/v glycerol at room temperature for 15 minutes. Fluorescence anisotropy (FA) was measured at 25° C., using a Tecan Infinite M1000 instrument with 470-nm excitation and 535-nm emission wavelengths for at least three replicates; the average FA values were plotted with one standard deviation of the mean shown as error. Prism software was used to convert FA values to the fraction of DNA bound and apparent dissociation constants were the Ref concentration (or variant) needed for 50% binding saturation.
(§2) Fluorescence polarization assays with labeled DNA substrates (ssDNA and dsDNA) were carried out to determine dissociation constants of each of the N-terminal domain truncations. […] For the P1 ΔN76 Ref protein, this is consistent with EMSA data from the earlier study (Gruenig et al 2011, supra). […] This indicates the presence of a critical sequence domain between residues 47-74.

φW39 ΔN21 Ref [2] = target: T2, φW39 ΔN21 Ref; assay: FP; apparent Kd; 119±9; 15 mM Mg acetate, pH 8.5, 25 C; conditions: tags: expressed from pET21A with NdeI start Met; label: 5'-6FAM
Protocol: as §1, §2

P1 ΔN76 Ref [3] = target: T3, P1 ΔN76 Ref; assay: FP; no binding detected up to 10,000 nM; consistent with earlier EMSA; conditions: label: 5'-6FAM
Protocol: as §1, §2

P1 Ref (wild type) [4] = target: T4, P1 Ref (wild type); assay: FP; apparent Kd; 14±1; 25 mM Tris-acetate pH 8.5, 15 mM Mg acetate, 3 mM K glutamate, 25 C; conditions: label: 5'-6FAM
Protocol: as §1, §2

φW39 ΔN47 Ref [5] = target: T5, φW39 ΔN47 Ref; assay: FP; apparent Kd; 113±7; 15 mM Mg acetate, pH 8.5, 25 C; conditions: tags: expressed from pET21A with NdeI start Met; label: 5'-6FAM
Protocol: as §1, §2

φW39 ΔN47 Ref [6] = target: T5, φW39 ΔN47 Ref; assay: FP; apparent Kd; 143±12; 15 mM Mg acetate, pH 8.5, 25 C; conditions: tags: expressed from pET21A with NdeI start Met; label: 5'-6FAM on AJM25
Protocol: as §1
(§3) The truncations were also assayed with 71mer dsDNA substrate. The dsDNA substrate was made by annealing the labeled 71mer oligonucleotide (AJM25) with the complementary 71mer oligonucleotide (AJG52). […] Instead, an increase in KD is seen as more of the N-terminus is truncated (FIG. 2B, 2C). Also, there is an apparent cooperativity when binding to dsDNA, and this cooperativity decreases as the N-terminus is truncated (FIG. 2C). This provides evidence that the N-terminal region of Ref is necessary for DNA binding. Specifically, the amino acids between position 47 and 74 are particularly important.

φW39 ΔN21 Ref [7] = target: T2, φW39 ΔN21 Ref; assay: FP; apparent Kd; 56±3; 15 mM Mg acetate, pH 8.5, 25 C; conditions: tags: expressed from pET21A with NdeI start Met; label: 5'-6FAM on AJM25
Protocol: as §1, §3

φW39 ΔN74 Ref [8] = target: T1, φW39 ΔN74 Ref; assay: FP; no observable binding; conditions: tags: expressed from pET21A with NdeI start Met; label: 5'-6FAM on AJM25
Protocol: (§4) The truncations were also assayed with a 71mer dsDNA substrate made by annealing the labeled 71mer oligonucleotide (AJM25) with the complementary 71mer oligonucleotide (AJG52). […] As the second motif and part of the third motif were removed in the φW39 ΔN59 and φW39 ΔN66, dsDNA binding was further reduced. As with the ssDNA, φW39 ΔN74 and P1 ΔN76 Ref had no observable dsDNA binding. Overall we provide evidence that the N-terminal region of Ref is necessary for DNA binding, and the putative charge motifs may contribute collectively to that function.
(§5) Ref proteins at 0.5-10,000 nM were incubated with 2 nM AJM25 71mer ssDNA or AJM25 annealed with AJG52 71mer to make a linear 71 bp dsDNA substrate in 25 mM Tris-acetate (pH 8.5), 3 mM potassium glutamate, 15 mM magnesium acetate, and 5% w/v glycerol at room temperature for 15 minutes. Fluorescence anisotropy (FA) was measured at 25° C., using a Tecan Infinite M1000 instrument with 470-nm excitation and 535-nm emission wavelengths for at least three replicates. The average FA values were plotted with one standard deviation of the mean shown as error. Prism software was used to convert FA values to the percent of DNA bound and apparent dissociation constants were determined using one-site, specific binding with Hill coefficient.

P1 ΔN76 Ref [9] = target: T3, P1 ΔN76 Ref; assay: FP; no observable binding; conditions: label: 5'-6FAM on AJM25
Protocol: as §4, §5

P1 Ref (wild type) [10] = target: T4, P1 Ref (wild type); assay: FP; apparent Kd; 14±1; cooperative; 15 mM Mg acetate, pH 8.5, 25 C; conditions: label: 5'-6FAM on AJM25
Protocol: as §1, §3

| Binder | binding result (φW39 ΔN74 Ref [1]) | Kd (φW39 ΔN21 Ref [2]) | binding result (P1 ΔN76 Ref [3]) | Kd (P1 Ref (wild type) [4]) | Kd (φW39 ΔN47 Ref [5]) | Kd (φW39 ΔN47 Ref [6]) | Kd (φW39 ΔN21 Ref [7]) | binding result (φW39 ΔN74 Ref [8]) | binding result (P1 ΔN76 Ref [9]) | Kd (P1 Ref (wild type) [10]) |
| --- | --- | --- | --- | --- | --- | --- | --- | --- | --- | --- |
| B1 | no binding | 119 nM | no binding | 14.4 nM | 113 nM |  |  |  |  |  |
| B2 |  |  |  |  |  | 142 nM | 56.1 nM | no binding | no binding | 13.5 nM |
